From patent US8840891 (RSR, dated 2014)
Read-outs that look alike come from different tables or passages of the source.

How the values were obtained:
Test in all cases: cell-based or functional assay
[1] = target: TSHR with Ile60 mutated to Alanine (human) (UniProt P16473)
[2] = target: wild type human TSHR (human) (UniProt P16473)
[3] = target: wild type human TSHR (human) (UniProt P16473); remark: listed apart in the source
[4] = target: TSHR with Asp160 mutated to Lysine (human) (UniProt P16473)
[5] = target: wild type human TSHR (human) (UniProt P16473); remark: listed apart in the source

Sequence of 5C9 IgG (antibody) (VH): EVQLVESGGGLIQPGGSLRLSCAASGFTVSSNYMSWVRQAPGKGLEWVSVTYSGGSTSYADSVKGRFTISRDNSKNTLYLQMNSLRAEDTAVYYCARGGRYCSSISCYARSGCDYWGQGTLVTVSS
Sequence of 5C9 IgG (antibody) (VL): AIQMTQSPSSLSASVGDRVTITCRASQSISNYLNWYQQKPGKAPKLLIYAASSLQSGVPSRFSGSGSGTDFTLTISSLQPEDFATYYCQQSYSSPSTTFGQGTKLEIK

Which Mutated/wild type (%); 5C9 0.01 µg/mL + TSH [1] does the source give for 5C9 IgG (antibody) here?
The Mutated/wild type (%); 5C9 0.01 µg/mL + TSH was 236%.

What about the Mutated/wild type (%); 5C9 0.1 µg/mL + TSH [1] of the same substance?
Its Mutated/wild type (%); 5C9 0.1 µg/mL + TSH is 164%.

What about the Mutated/wild type (%); 5C9 1.0 µg/mL + TSH [1] of the same substance?
Its Mutated/wild type (%); 5C9 1.0 µg/mL + TSH is 210%.

And the Mutated/wild type (%); 5C9 10 µg/mL + TSH [1]?
Its Mutated/wild type (%); 5C9 10 µg/mL + TSH is 68%.

What about the Mutated/wild type (%); 5C9 100 µg/mL + TSH [1] of the same substance?
The Mutated/wild type (%); 5C9 100 µg/mL + TSH was 181%.

What about the Mutated/wild type (%); 5C9 100 µg/mL only [1] of the same substance?
Its Mutated/wild type (%); 5C9 100 µg/mL only is 426%.

And the cyclic AMP; 5C9 0.01 µg/mL + TSH (fmol/cell well) [1]?
Its cyclic AMP; 5C9 0.01 µg/mL + TSH (fmol/cell well) is 19000.

What about the cyclic AMP; 5C9 0.1 µg/mL + TSH (fmol/cell well) [1] of the same substance?
The cyclic AMP; 5C9 0.1 µg/mL + TSH (fmol/cell well) was 11600.

And the cyclic AMP; 5C9 1.0 µg/mL + TSH (fmol/cell well) [1]?
Its cyclic AMP; 5C9 1.0 µg/mL + TSH (fmol/cell well) is 3290.

What about the cyclic AMP; 5C9 10 µg/mL + TSH (fmol/cell well) [1] of the same substance?
Its cyclic AMP; 5C9 10 µg/mL + TSH (fmol/cell well) is 1210.

And the cyclic AMP; 5C9 100 µg/mL + TSH (fmol/cell well) [1]?
Its cyclic AMP; 5C9 100 µg/mL + TSH (fmol/cell well) is 3130.

And the cyclic AMP; 5C9 100 µg/mL only (fmol/cell well) [1]?
Its cyclic AMP; 5C9 100 µg/mL only (fmol/cell well) is 260.

And the cyclic AMP; 5C9 0.01 µg/mL + TSH (fmol/cell well) [2]?
The cyclic AMP; 5C9 0.01 µg/mL + TSH (fmol/cell well) was 8020.

What about the cyclic AMP; 5C9 0.1 µg/mL + TSH (fmol/cell well) [2] of the same substance?
Its cyclic AMP; 5C9 0.1 µg/mL + TSH (fmol/cell well) is 7100.

And the cyclic AMP; 5C9 1.0 µg/mL + TSH (fmol/cell well) [2]?
The cyclic AMP; 5C9 1.0 µg/mL + TSH (fmol/cell well) was 1570.

What about the cyclic AMP; 5C9 10 µg/mL + TSH (fmol/cell well) [2] of the same substance?
The cyclic AMP; 5C9 10 µg/mL + TSH (fmol/cell well) was 1770.

What about the cyclic AMP; 5C9 100 µg/mL + TSH (fmol/cell well) [2] of the same substance?
Its cyclic AMP; 5C9 100 µg/mL + TSH (fmol/cell well) is 1730.

And the cyclic AMP; 5C9 100 µg/mL only (fmol/cell well) [2]?
Its cyclic AMP; 5C9 100 µg/mL only (fmol/cell well) is 61.

And the cyclic AMP; 5C9 0.01 µg/mL + TSH (fmol/cell well) [3]?
The cyclic AMP; 5C9 0.01 µg/mL + TSH (fmol/cell well) was 13600.

And the cyclic AMP; 5C9 0.1 µg/mL + TSH (fmol/cell well) [3]?
The cyclic AMP; 5C9 0.1 µg/mL + TSH (fmol/cell well) was 8700.

What about the cyclic AMP; 5C9 1.0 µg/mL + TSH (fmol/cell well) [3] of the same substance?
The cyclic AMP; 5C9 1.0 µg/mL + TSH (fmol/cell well) was 4540.

What about the cyclic AMP; 5C9 10 µg/mL + TSH (fmol/cell well) [3] of the same substance?
Its cyclic AMP; 5C9 10 µg/mL + TSH (fmol/cell well) is 2390.

And the cyclic AMP; 5C9 100 µg/mL + TSH (fmol/cell well) [3]?
Its cyclic AMP; 5C9 100 µg/mL + TSH (fmol/cell well) is 1390.

And the cyclic AMP; 5C9 100 µg/mL only (fmol/cell well) [3]?
Its cyclic AMP; 5C9 100 µg/mL only (fmol/cell well) is 212.

What about the Mutated/wild type (%); 5C9 0.01 µg/mL + M22 [4] of the same substance?
The Mutated/wild type (%); 5C9 0.01 µg/mL + M22 was 91%.

What about the Mutated/wild type (%); 5C9 0.1 µg/mL + M22 [4] of the same substance?
Its Mutated/wild type (%); 5C9 0.1 µg/mL + M22 is 82%.

And the Mutated/wild type (%); 5C9 1.0 µg/mL + M22 [4]?
The Mutated/wild type (%); 5C9 1.0 µg/mL + M22 was 117%.

What about the Mutated/wild type (%); 5C9 10 µg/mL + M22 [4] of the same substance?
Its Mutated/wild type (%); 5C9 10 µg/mL + M22 is 309%.

What about the Mutated/wild type (%); 5C9 100 µg/mL + M22 [4] of the same substance?
The Mutated/wild type (%); 5C9 100 µg/mL + M22 was 218%.

And the Mutated/wild type (%); 5C9 100 µg/mL only [4]?
Its Mutated/wild type (%); 5C9 100 µg/mL only is 107%.

And the cyclic AMP; 5C9 0.01 µg/mL + M22 (fmol/cell well) [4]?
The cyclic AMP; 5C9 0.01 µg/mL + M22 (fmol/cell well) was 15200.

And the cyclic AMP; 5C9 0.1 µg/mL + M22 (fmol/cell well) [4]?
Its cyclic AMP; 5C9 0.1 µg/mL + M22 (fmol/cell well) is 7700.

And the cyclic AMP; 5C9 1.0 µg/mL + M22 (fmol/cell well) [4]?
The cyclic AMP; 5C9 1.0 µg/mL + M22 (fmol/cell well) was 963.

And the cyclic AMP; 5C9 10 µg/mL + M22 (fmol/cell well) [4]?
The cyclic AMP; 5C9 10 µg/mL + M22 (fmol/cell well) was 642.

What about the cyclic AMP; 5C9 100 µg/mL + M22 (fmol/cell well) [4] of the same substance?
The cyclic AMP; 5C9 100 µg/mL + M22 (fmol/cell well) was 657.

What about the cyclic AMP; 5C9 100 µg/mL only (fmol/cell well) [4] of the same substance?
Its cyclic AMP; 5C9 100 µg/mL only (fmol/cell well) is 458.

What about the cyclic AMP; 5C9 0.01 µg/mL + M22 (fmol/cell well) [5] of the same substance?
The cyclic AMP; 5C9 0.01 µg/mL + M22 (fmol/cell well) was 16700.

And the cyclic AMP; 5C9 0.1 µg/mL + M22 (fmol/cell well) [5]?
Its cyclic AMP; 5C9 0.1 µg/mL + M22 (fmol/cell well) is 9380.

What about the cyclic AMP; 5C9 1.0 µg/mL + M22 (fmol/cell well) [5] of the same substance?
The cyclic AMP; 5C9 1.0 µg/mL + M22 (fmol/cell well) was 821.

What about the cyclic AMP; 5C9 10 µg/mL + M22 (fmol/cell well) [5] of the same substance?
Its cyclic AMP; 5C9 10 µg/mL + M22 (fmol/cell well) is 208.

What about the cyclic AMP; 5C9 100 µg/mL + M22 (fmol/cell well) [5] of the same substance?
Its cyclic AMP; 5C9 100 µg/mL + M22 (fmol/cell well) is 301.

And the cyclic AMP; 5C9 100 µg/mL only (fmol/cell well) [5]?
Its cyclic AMP; 5C9 100 µg/mL only (fmol/cell well) is 429.
